Like-named read-outs stand apart in the source and are kept apart here.

Data set [1] has as its target T1, CytR DBD (Escherichia coli, UniProt P0ACN7 1-67).
T1 sequence: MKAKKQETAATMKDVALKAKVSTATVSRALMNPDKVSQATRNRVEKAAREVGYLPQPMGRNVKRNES
The data set can be described thus: fluorescence anisotropy. On the technique in general: Polarisation of emitted light reports the rotation of a fluorescent probe.

Data set [2] addresses T1, CytR DBD. The data set can be described thus: fluorescence anisotropy. The source holds these as a separate data set.
In data set [3] the target is T1, CytR DBD. In words: NMR.
Data set [4] addresses T1, CytR DBD. The data set can be described thus: fluorescence anisotropy. The source holds these as a separate data set.

B1: nonspecific 30 bp (dsDNA)
DNA 1: GTACAGAACATGTCTAAGCATGCTGGGGAC
DNA 2: GTCCCCAGCATGCTTAGACATGTTCTGTAC
With B1, binding in data set [1] was characterised by a dissociation constant (Kd) of 1.81 µM.

B2: nonspecific 14 bp (dsDNA)
DNA 1: AGCATGCTGGGGAC
DNA 2: GTCCCCAGCATGCT
For the molecule B2, in data set [2], binding was characterised by a dissociation constant (Kd) of 5.7 µM.

B3: udp full-site operator (CytO) (dsDNA)
DNA 1: GTAAATTTATGCAACGCATTTGCGTCATGGTG
DNA 2: CACCATGACGCAAATGCGTTGCATAAATTTAC
For the molecule B3, the binding result in data set [3] was “binds”.

B4: udp left half-site (dsDNA)
DNA 1: ATTTATGCAACGCA
DNA 2: TGCGTTGCATAAAT
With B4, the affinity in data set [4], expressed as Kd, was 9.6 ± 1.8 µM.

The values are drawn from paper doi:10.1101/2021.02.28.433298.
